Data taken from US20160083442.

## purified p38 proteins activated by incubation with active Zap70
(11R)-Ctrl
  phosphorylation of ATF2 (in vitro kinase assay, [32P]ATP, phosphorimager): incubation with (11R)-71-85, but not (11R)-Ctrl, led to a decrease in phosphorylation of ATF2
(11R)-71-85
  phosphorylation of ATF2 (in vitro kinase assay, [32P]ATP, phosphorimager): incubation with (11R)-71-85, but not (11R)-Ctrl, led to a decrease in phosphorylation of ATF2. In addition, the decrease in ATF2 phosphorylation was dependent on the dose of (11R)-71-85
